Among the data in US20260028391A1 are RSV Neutralization - IC50 and Kd values, retold here.

Assay [1] deals with fusion glycoprotein of the RSV used in the neutralization assay of Example 1 (respiratory syncytial virus (strain not stated)). Kind of assay: cell-based or functional assay.
Assay [2] has as its target MPV fusion glycoprotein with the D280N mutation (MPV-F N280) (metapneumovirus). Kind of assay: SPR; F protein loaded on streptavidin sensors, mAb in solution. In general terms: SPR reads the build-up and loss of mass on a sensor chip optically.
The target in assay [3] is MPV fusion glycoprotein without the D280N mutation (MPV-F D280) (metapneumovirus). The description is as above.

B1: MPK194-v2 (antibody, V domains shown)
VH: QVQLVESGGGVVQPGRSLRLSCVASGFTFSNYPLHWVRQAPGKGLQWVAVISYDGSENYYADSVKGRFTISRDNSKSTLYLQMNSLRPEDTAIYYCARSKVAGGSYYFDYWGQGTLVPVSS
VL: SYELTQPPSVSVAPGQAARVSCGGNNIGSQYVQWYQQKPGQAPVLVIYDDDDRPSGIPERFSGSNSGSTATLTISRVEAGDEADYYCQVWDKSNHVVVFGGGTKLTVL
B1 gave an RSV Neutralization - IC50 in assay [1] of 2.6 ng/mL.

B2: MPK180 (antibody, V domains shown)
VH: QVQLVQSGAEVKKPGESLRISCKASGYSFASYWIGWVRQKPGKGPEWMGIIFPNDSDTEYSPSFEGQVSISADKSTSTVHLQWGSLKASDTAVYYCGRMYYLGALETWGQGTMVTVSS
VL: AIRMTQSPSSLSASVGDRVTIVCQASHDISNFLNWYQQRPGQAPKLLIYDASFLETGVPSRFSGSGSGTYFTLTISSLQPEDFATYYCQRYDNRFFTFGPGTKVDIK
Regarding B2, the RSV Neutralization - IC50 in assay [1] was 1.5 ng/mL.

B3: MPK179-v4 (antibody, V domains shown)
VH: QVQLVQSRAEVKKPGESLKISCRASGYSFINYWIGWVRQMPGKGLEWMGIIYPFDSDTKYSPSFEGHVTISADKSINTAYVQWSSLKASDTAIYYCARFTFGIALVAGDVGGEGHAFDIWGQGTLVTVSS
VL: DIVMTQSPSSLSASVGDRVTITCRASQTISTYLNWYQQKPGKAPKLLIYAASRLQSGVPSRFSGSGSGTDFTLTISSLQPEDFATYFCQQSYNAPPFTFGPGTKVDIR
In assay [1], B3 had an RSV Neutralization - IC50 of 6.6 ng/mL.

B4: MPK187 (antibody, V domains shown)
VH: QVQLVQSGAEVKKPGASVKVSCKTSGYYFNDYFIHWVRHAPGQGLEWMGWVNPLSGATVYAQKFQGWVTLTRDTSINTAYMELTRLTSNDTAMYYCATGALFWTGPTYWGQGTPVTVSA
VL: EIVLTQSPATLSLFPGERATLSCRTSQFVSNNLAWYQQRPGQAPRLLIYDASSRASGTPGRFSASGSGTDFTLTVSSLETEDFAIYYCQHRSNWPPGITFGPGTRVDIR
In assay [1], B4 came in with an RSV Neutralization - IC50 of 9.1 ng/mL.

B5: MPK197 (antibody, V domains shown)
VH: QVQLVQSGAEVKKPGASVKVSCKTSGYYFNDYFIHWVRHAPGQGLEWMGWVNPLSGATVYAQKFQGWVTLTRDTSINTAYMELTRLTSNDTALYYCATGALFWTGPTYWGQGTPVTVSA
VL: EIVMMQSPATLSLSPGERATLSCRASQSISNNLAWYQQKTGQAPRLLIYDASSRASGTPGRFSASGSGTDFTLTVSSLETEDFAIYYCQHRSNWPPGITFGPGTRVDVR
For B5, the RSV Neutralization - IC50 in assay [1] was found to be 14.7 ng/mL.

B6: MPK158 (antibody, V domains shown)
VH: EVQLVESGGGLVKPGGSLRLSCAASGFSISGFYMIWIRQAPGKGLEWISDISASSSYIDYADSVKGRFTISRDNGQNTVHLLMNNLRADDTGVYYCAREQTPSPGPFDLWGQGTLVTVST
VL: QPVLTQPPSVSGAPGQRVTISCTGRSSNIGAGYDVHWYQHLPGTSPKLLIYRNSNRPSGVPDRFSGSTSGTSASLAITGLQADDEADYYCQAYDRILGGWAFGGGTKLTVL
For the molecule B6, the Kd in assay [2] is 290 pM; in assay [3], 1 pM.

B7: MPK168 (antibody, V domains shown)
VH: EVQLVQSGAEVKKPGESLKISCQVSGYSFVNYWIGWVRQVPGKGLEWMGLIYPFDSDTQYSPSFQGHVTISADTSITTAYLQWSSLQASDTATYYCARFTFGLALVTAGLTDDGQAFDFWGQGTVVTVSS
VL: EIVMMQSPATLSVSPGERATLSCRATESVAGKLAWYQQRPGQTPRLLIYGASARATGVPARFSGSGSETEFTLTISSLQSEDFAVYYCQQYSTWPHAFGQGTRLDIK
Consider B7, for which the RSV Neutralization - IC50 in assay [1] came out at 1.3 ng/mL.

B8: MPK189 (antibody, V domains shown)
VH: QVQLVQSGAEVKKPGESLKISCKGSGYSFINYWIGWVRQMPGKGLEWMGIIYPFDSDTKYSPSFQGHVTISADKSINTAYVQWSSLKASDTAMYYCARFTFGIAVVTDDVSDEGHAFDIWGQGTMVTVSS
VL: EIVMMQSPATLSVSPGERATLSCRASQSVAGNLAWYQQRPGQAPRLLIYGASTRATGVPARFSGSGSETEFTLTISSLQSEDFAVYYCQQYSNWPQAFGQGTRLDIK
Turning to B8, the RSV Neutralization - IC50 in assay [1] worked out at 1.2 ng/mL.

B9: MPK198 (antibody, V domains shown)
VH: EVQLVQSGAEVKKPGESLKISCKGSGYSFINYWIGWVRQMPGKGLEWMGIIYPFDSDTKYSPSFQGHVTISADKSINTAYVQWSSLKASDTAMYYCARFTFGIAVVTDDVSGEGQAFDIWGQGTMVTVSS
VL: EIVMMQSPATLSVSPGERATLSCRASQSVAGNLAWYQQRPGQAPRLLIYGASTRATGVPARFSGSGSETEFTLTISSLQSEDFAVYYCQQYSNWPQAFGQGTRLDIK
For the molecule B9, in assay [1], the RSV Neutralization - IC50 was 1.2 ng/mL.

B10: MPK203 (antibody, V domains shown)
VH: EVQLVQSGPQVKKPGAAVKVSCKASGFTFTDTTVNWVRQTRGQRLEWMGWIAVGSGTTNYAQKFRDRVTISRDTSTDTAYMELGGLTHDDTAVYYCTTEASRTWFVQTSPFVGFDPWGQGTLVTVSS
VL: EIVLTQSPGTLSLSPGERATLSCRASQSVSSSYFAWYQQKPGQTPRVLIYGASNRAPDIPDRFSGSGSGTDFILTISRLEPEDFAIYYCQHYGSSPTFGQGTKVEIK
As for B10, in assay [1], the RSV Neutralization - IC50 came to 2 ng/mL.

B11: MPK175 (antibody, V domains shown)
VH: QVQLVQSGAEVKKPGESLKISCQASGYSFINYWIGWVRQKPGKGLEWMGIIYPFDSETKYSPSFQGHVTISADRFTNTAYVQWTSLKASDTAIYYCARFTFGLAVVAGGLSDDGQAFDIWGQGTRVTVSS
VL: EIVLTQSPATLSVSPGERATLSCRASQSVAANLAWYQQRPGQTPRLLIYGASTRATGVPARFSGSGSETEFTLTISSLQPEDFAVYYCHHYSDWPQAFGQGTRLDIK
Take B11: the RSV Neutralization - IC50 in assay [1] is 1.6 ng/mL.

B12: MPK201 (antibody, V domains shown)
VH: EVQLVQSGAEVKKPGESLKISCQGSGYSFINYWIGWVRQKPGKGLEWMGIIYPFDSETKYSPSFQGHVTFSADKSINTAYVQWSSLRASDTAMYYCARFTFGLAVTTADVSGEGQAFEIWGQGTMVTVSS
VL: EIVMMQSPATLSVSPGERATLSCRASQSVAGNLAWYQQRPGQAPRLLVYGASTRASGVPARFSGSGSETEFTLTISSLQSEDFAVYYCHHYSDWPQAFGQGTRLDIK
With B12, the RSV Neutralization - IC50 in assay [1] was found to be 2.4 ng/mL.

B13: MPK186 (antibody, V domains shown)
VH: QVQLVQSGAEVKKPGESLKISCQGSGYSFINYWIGWVRQMPGKGLEWMGIIYPFDSETKYSPSFQGHVTISADKSINTAYVQWSSLKASDTAMYYCARFTFGIAVVTDDVYGEAQGFDIWGQGTMVTVSS
VL: DIVMTQTPATLSVSPGERATLSCRASQSVDGNLAWYQQRPGQAPRLLIYGASTRATGVPARFSGSGSETEFTLTISSLQSEDFAVYYCQHYSNWPQAFGQGTRLDIK
With B13, the RSV Neutralization - IC50 in assay [1] turned out to be 1.2 ng/mL.

B14: MPK188 (antibody, V domains shown)
VH: EVQLVQSGAEVKKPGESLKISCQASGYSFINYWIGWVRQMPGKGLEWMGIIYPFDSDTNYSPSFQGLVTISADKSINTAYLQWRSLKASDTAMYYCARFTFGIALVAGDVNGEGHAFDIWGQGTVVTVSS
VL: EIVMTQSPATLSVSPGESATLSCRASQGVAGNLAWYQQRPGQAPRLLIYGTSTRATGVPARFSGSGSETEFTLTISSLQSEDFAVYYCHHYSNWPQAFGQGTRLDIK
Turning to B14, the RSV Neutralization - IC50 in assay [1] came out at 1 ng/mL.

B15: MPK193 (antibody, V domains shown)
VH: EVQLVQSGAEVKKPGESLKISCEASGYSFNNYWIGWVRQMPGKGLEWMGIIYPFDSDTKYSPSFQGHVTISADKSINTAYLQWSSLKASDTAMYFCARFTFGIVLVAGDVTGEGHAFDVWGRGTMVTVTS
VL: EIVMMQSPVTLSVSPGGRATLSCRASQSVAGNLAWYQQRPGQAPRLLIYGASTRATGVPARFSGSGSETEFTLTISSLQSEDFAVYYCHHYSNWPQAFGQGTRLDIK
As to B15, the RSV Neutralization - IC50 in assay [1] came to 1 ng/mL.

B16: MPK133 (antibody, V domains shown)
VH: QVQLVQSGGGLVKPGGSLRLSCAASEFSFSGYFMIWIRQAPGKGLEWISYISGSSTYTNYADSVKGRFTISRDNAQNTLYLEMNSLRAEDTGVYYCATEQVPSPGPFDLWGQGTLVTVSS
VL: QSVLTQPPSVSGAPGQRVTISCTGSSSNIGAGYDVHWYQQFPGRSPTLLIYRNTNRPSGVPDRFSGSQSGSSASLAITGLQAEDEADYYCQSYDRTLSGWAFGGGTKVTVL
Regarding B16, the dissociation constant (Kd) in assay [2] was 3700 pM; in assay [3], 82 pM.

B17: MPK146 (antibody, V domains shown)
VH: QVQLVESGGGLVKPGGSLRLSCAASGFTFSGYYMIWIRQAPGKGLEWIASISGSSNYIDYADSVRGRFTISRDNARNILDLQMNSLRAGDTALYYCATEQVPSPGPFDLWGQGTLVTVSS
VL: QSVLTQPPSVSGAPGQRVTISCTGSNSNLGAGYDVHWYQQFPGTSPKLLIYRNTNRPSGVPDRFAGSKSGTSASLAITGLQAEDEADYYCQSYDRSLSGWVFGGGTKLTVL
On to B17, for which the Kd in assay [2] stood at 7200 pM; in assay [3], 1 pM.

B18: MPK204 (antibody, V domains shown)
VH: QVQLVESGGGLVKPGGSLRLSCEASGLSLSGYYMIWIRQAPGKGLEWISSISSSSNYIDYADSVKGRFTISRHNGQNTLYLQMNSLRVEDTAVYYCATEQTPSPGPFDLWGQGTLVTVSS
VL: QSVLTQPPSVSGAPGQRVTISCTGTSSNIGTGYDVHWYQQFPGTSPKLLIYRNTNRPSGVPDRFSGSKSGSSASLAIAGLQAEDEADYYCQSYDRSVSGWVFGGGTKLTVL
With B18, the figures for the Kd in assay [2] and in assay [3] were 2600 pM and 1 pM, respectively.

B19: MPK130 (antibody, V domains shown)
VH: EVQLVESGGGLVKPGGSLTLSCEASGFSISGYYMIWVRQAPGKGLEWVSSISASDTYIDYAVSVQGRFTISRHNTKNSLYLQMSSLRVEDTGVYYCTREKVPSPGPFDCWGQGTLVTVSS
VL: QSVLTQPPSVSGAPGQRITISCTGTSSNIGAGYDVHWYQHLPGAAPRLLIYVNTNRPSGVPDRFSGARSGTSASLAITGLQAEDEADYYCQSYDRSLGGWAFGEGTKVTVL
Consider B19, for which the Kd in assay [2] was determined as 1900 pM; in assay [3], 18 pM.

B20: MPK176 (antibody, V domains shown)
VH: QVQLVQSGAEVKKPGASVRVSCKASGYTLTAYGISWVRQAPGQGLEWMGWISPKHGNTHYAQRFQGRVTMTTDTSTSTAYMELRSLRPDDTAVYFCAREGVDIMAVPWYFDYWGQGTLVAVSS
VL: SYELTQPPSVSVAPGQTARISCGGNNIGSKSVHWYQQKPGQAPVVVVYDDSDRPSGIPERFSGSNSGNTATLTISGVEAGDEADYFCQVWDSATDHWVFGGGTKLTVL
Consider B20, for which the RSV Neutralization - IC50 in assay [1] came to 4.2 ng/mL.

The Kd is the equilibrium constant for the complex coming apart.
